Several values for one entry are separate records, joined by “and”; a condition that tells them apart may be missing. Identical values can stand only once.

For assay [1], the target named is PIK3R1 N-terminal SH2 domain (human). As to the kind of experiment: SPR; Biacore 3000; 6X His SH2 proteins held on a Ni-NTA chip, dye-free peptides in solution, equilibrium.
The target in assay [2] is PLCG1 C-terminal SH2 domain (human). The assay is described as above.
In assay [3] the target is TNS3 SH2 domain (human) (UniProt Q68CZ2). Described as above.
Sequence of TNS3 SH2 domain (human) (Q68CZ2 1172-1282): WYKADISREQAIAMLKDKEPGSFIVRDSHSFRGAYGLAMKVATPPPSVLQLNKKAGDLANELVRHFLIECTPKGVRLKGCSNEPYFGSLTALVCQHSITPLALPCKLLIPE
For another assay, the target named is GRAP2 SH2 domain (human) (UniProt O75791). Put plainly: peptide or protein array; SH2/PTB proteins spotted on aldehyde slides, rhodamine peptide titrated in buffer B (20 mM HEPES, 100 mM KCl, 0.1% Tween-20, 5 mM DTT, pH 7.8), 1 h at room temperature; replicate assays.
Sequence of GRAP2 SH2 domain (human) (O75791 58-149): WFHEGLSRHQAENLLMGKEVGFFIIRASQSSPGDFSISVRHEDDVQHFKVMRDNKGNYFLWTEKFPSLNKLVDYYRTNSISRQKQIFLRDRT
For another assay, the target named is GRB7 SH2 domain (human) (UniProt Q14451). The description is as above.
Sequence of GRB7 SH2 domain (human) (Q14451 431-527): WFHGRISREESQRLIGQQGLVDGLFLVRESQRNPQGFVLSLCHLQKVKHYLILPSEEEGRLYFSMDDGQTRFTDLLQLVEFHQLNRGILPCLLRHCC
For a further assay, the target named is ITK SH2 domain (human) (UniProt Q08881). The description is as above.
Sequence of ITK SH2 domain (human) (Q08881 239-338): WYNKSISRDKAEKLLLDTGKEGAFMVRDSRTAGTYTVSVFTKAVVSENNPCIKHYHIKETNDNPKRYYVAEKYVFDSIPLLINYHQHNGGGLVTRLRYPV
Another assay concerns the target LCK SH2 domain (human) (UniProt P06239). The assay is described as above.
Assay [4] addresses PLCG1 tandem SH2 domains (human). Described as above.
Assay [5] deals with SH2D3A SH2 domain (human) (UniProt Q9BRG2). The description is as above.
Sequence of SH2D3A SH2 domain (human) (Q9BRG2 15-114): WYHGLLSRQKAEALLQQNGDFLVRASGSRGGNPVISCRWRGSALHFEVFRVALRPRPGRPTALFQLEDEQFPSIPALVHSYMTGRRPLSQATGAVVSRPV
In the next assay the target is SRC SH2 domain (human) (UniProt P12931). The description is as above.
Assay [6] concerns the target SYK N-terminal SH2 domain (human). The assay is described as above.
The target of a further assay is TEC SH2 domain (human) (UniProt P42680). The description is as above.
Sequence of TEC SH2 domain (human) (P42680 247-345): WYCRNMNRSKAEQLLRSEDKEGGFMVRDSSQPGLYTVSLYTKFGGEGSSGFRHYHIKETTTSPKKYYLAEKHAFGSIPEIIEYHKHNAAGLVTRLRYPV
For assay [7], the target named is TNS3 SH2 domain (human) (UniProt Q68CZ2). The description is as above.
The next assay concerns the target BLK SH2 domain (human) (UniProt P51451). The assay is described as above.
The target in another assay is FES SH2 domain (human) (UniProt P07332). The description is as above.
Sequence of FES SH2 domain (human) (P07332 460-549): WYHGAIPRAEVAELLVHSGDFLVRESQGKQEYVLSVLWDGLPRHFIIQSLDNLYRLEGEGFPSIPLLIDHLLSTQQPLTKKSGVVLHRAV
The target of assay [8] is PIK3R3 tandem SH2 domains (human). Described as above.
The target in assay [9] is PLCG2 tandem SH2 domains (human). Described as above.
For assay [10], the target named is RASA1 N-terminal SH2 domain (human) (UniProt P20936). The assay is described as above.
Sequence of RASA1 N-terminal SH2 domain (human) (P20936 whole entry, the tested form may be a part): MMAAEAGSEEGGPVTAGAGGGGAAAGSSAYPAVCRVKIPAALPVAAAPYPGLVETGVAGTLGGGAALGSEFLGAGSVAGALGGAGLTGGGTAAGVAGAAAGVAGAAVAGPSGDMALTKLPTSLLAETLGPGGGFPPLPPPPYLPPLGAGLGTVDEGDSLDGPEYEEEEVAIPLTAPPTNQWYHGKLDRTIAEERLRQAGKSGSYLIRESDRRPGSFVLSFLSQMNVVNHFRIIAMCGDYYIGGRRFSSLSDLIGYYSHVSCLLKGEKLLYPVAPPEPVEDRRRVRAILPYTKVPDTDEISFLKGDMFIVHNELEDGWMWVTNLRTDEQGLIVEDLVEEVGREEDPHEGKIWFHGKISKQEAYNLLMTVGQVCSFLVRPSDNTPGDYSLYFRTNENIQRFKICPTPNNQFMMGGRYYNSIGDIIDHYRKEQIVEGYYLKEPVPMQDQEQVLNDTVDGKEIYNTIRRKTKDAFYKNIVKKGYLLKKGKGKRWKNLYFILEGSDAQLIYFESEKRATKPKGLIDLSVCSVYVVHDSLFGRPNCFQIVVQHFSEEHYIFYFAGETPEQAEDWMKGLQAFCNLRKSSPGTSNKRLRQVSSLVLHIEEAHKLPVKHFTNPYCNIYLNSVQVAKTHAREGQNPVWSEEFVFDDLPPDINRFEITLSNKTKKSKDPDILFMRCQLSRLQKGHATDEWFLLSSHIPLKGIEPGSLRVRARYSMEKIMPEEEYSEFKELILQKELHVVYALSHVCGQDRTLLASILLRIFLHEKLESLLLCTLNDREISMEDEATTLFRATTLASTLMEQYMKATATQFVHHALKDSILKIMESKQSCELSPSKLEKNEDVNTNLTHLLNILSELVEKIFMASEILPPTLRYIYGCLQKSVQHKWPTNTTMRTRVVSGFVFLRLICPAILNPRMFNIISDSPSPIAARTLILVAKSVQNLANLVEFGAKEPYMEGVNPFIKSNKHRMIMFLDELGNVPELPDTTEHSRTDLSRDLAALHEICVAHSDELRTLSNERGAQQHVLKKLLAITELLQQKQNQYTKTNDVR
Assay [11] addresses SH3BP2 SH2 domain (human) (UniProt P78314). The description is as above.
For assay [12], the target named is SYK tandem SH2 domains (human). The description is as above.
The target in the next assay is TNS1 SH2 domain (human) (UniProt Q9HBL0). Described as above.
Sequence of TNS1 SH2 domain (human) (Q9HBL0 1567-1676): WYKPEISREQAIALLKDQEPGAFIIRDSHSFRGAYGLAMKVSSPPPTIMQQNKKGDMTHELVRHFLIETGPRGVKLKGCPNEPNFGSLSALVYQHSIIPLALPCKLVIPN
In another assay the target is YES1 SH2 domain (human) (UniProt P07947). The description is as above.
Sequence of YES1 SH2 domain (human) (P07947 158-255): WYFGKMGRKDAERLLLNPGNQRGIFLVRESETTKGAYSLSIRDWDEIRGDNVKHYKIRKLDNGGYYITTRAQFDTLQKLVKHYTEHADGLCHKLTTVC
Assay [13] addresses PIK3R3 C-terminal SH2 domain (human). As to the kind of experiment: SPR; Biacore 3000; 6X His SH2 proteins held on a Ni-NTA chip, dye-free peptides in solution, equilibrium.
In another assay the target is SHC3 SH2 domain (human) (UniProt Q92529). The description is as above.
Sequence of SHC3 SH2 domain (human) (Q92529 499-590): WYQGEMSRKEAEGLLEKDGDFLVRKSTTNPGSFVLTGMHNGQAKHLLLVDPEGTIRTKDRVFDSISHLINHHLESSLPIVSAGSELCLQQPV
For assay [14], the target named is ErbB1 pY900 phosphopeptide, rhodamine-labelled (human). Put plainly: fluorescence polarisation; saturation binding in solution: rhodamine peptide fixed at 10 nM, protein titrated 0.002-10 uM, 20 min at room temperature; assay buffer 20 mM HEPES, 100 mM KCl, 0.1% Tween-20, 5 mM DTT, pH 7.8; apparent KD.
The target of assay [15] is ErbB2 pY685 phosphopeptide, rhodamine-labelled (human). Described as above.
Assay [16] concerns the target ErbB4 pY906 phosphopeptide, rhodamine-labelled (human). Described as above.
Assay [17] deals with KIT pY936 phosphopeptide, rhodamine-labelled. The assay is described as above.
Assay [18] deals with MET pY1313 phosphopeptide, rhodamine-labelled. Described as above.
The target in assay [19] is ErbB1 pY801 phosphopeptide, rhodamine-labelled (human). The description is as above.
The target in assay [20] is ErbB1 pY978 phosphopeptide, rhodamine-labelled (human). The assay is described as above.
The target of assay [21] is ErbB4 pY833 phosphopeptide, rhodamine-labelled (human). Described as above.

Sequence of LCK SH2 domain (human) (P06239 127-224): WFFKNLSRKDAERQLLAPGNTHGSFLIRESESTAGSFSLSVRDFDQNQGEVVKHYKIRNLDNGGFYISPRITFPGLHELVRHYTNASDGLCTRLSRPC
Sequence of SH3BP2 SH2 domain (human) (P78314 457-555): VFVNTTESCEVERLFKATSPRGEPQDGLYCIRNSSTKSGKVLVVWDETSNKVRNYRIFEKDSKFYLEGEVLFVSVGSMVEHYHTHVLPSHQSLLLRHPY
Sequence of BLK SH2 domain (human) (P51451 124-220): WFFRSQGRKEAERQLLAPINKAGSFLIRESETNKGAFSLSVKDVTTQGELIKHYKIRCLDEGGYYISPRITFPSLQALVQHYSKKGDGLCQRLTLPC

On to ErbB1 pY801 phosphopeptide, dye-free, for which the Kd in assay [1] was determined as 2800 nM; in assay [2], 2330 nM; with TNS3 SH2 domain (human) [3], 916 nM.

As for “ErbB3 pY789 phosphopeptide, rhodamine-labelled, for protein microarrays”, the Kd was 1310 nM in the assay with GRAP2 SH2 domain (human); 1190 nM with GRB7 SH2 domain (human); 1160 nM in the assay with ITK SH2 domain (human); 550 nM and 1140 nM and 1120 nM with LCK SH2 domain (human); 380 nM in assay [4]; 170 nM and 401 nM and 402 nM in assay [5]. Also, the Kd with SRC SH2 domain (human) was 1850 nM and 424 nM; in [6], 609 nM and 1330 nM; with TEC SH2 domain (human), 1660 nM; in the assay with TNS3 SH2 domain (human) [7], 802 nM.

In the case of “ErbB3 pY1132 phosphopeptide, rhodamine-labelled, for protein microarrays”, the Kd with BLK SH2 domain (human) turned out to be 199 nM; with FES SH2 domain (human) it was 3200 nM; in the assay with GRB7 SH2 domain (human), 10 nM; in [8], 7.73 nM; in assay [9] it was 1190 nM; in [10], 5150 nM. Further, the Kd in [11] is 6400 nM; in assay [6], 2400 nM; in assay [12] it was 785 nM and 4980 nM; with TNS1 SH2 domain (human), 1.44 nM; in the assay with YES1 SH2 domain (human) it was 735 nM and 2260 nM.

Turning to ErbB4 pY906 phosphopeptide, dye-free, the figures for the Kd (in [13]; with SHC3 SH2 domain (human)) were 566 nM and 6710 nM, respectively.

For the substance “PIK3R3 C-terminal SH2 domain (domain or fragment)”, the Kd in assay [14] is 5830 nM; in assay [15], 4430 nM; in assay [16], 1840 nM; in assay [17], 8380 nM; in assay [18], 255 nM.

Consider “PLCG1 C-terminal SH2 domain (domain or fragment)”, for which the Kd in [19] is 9440 nM; in [14], 15500 nM; in assay [20], 1370 nM; in [21] it was 4730 nM; in [18], 2280 nM.
